Earlier results as cited in article PMC11187271.
pKd: −log10 of the molar value.

Molecular target: Galectin-1 (Homo sapiens) (UniProt P09382)
Chain of UniProt P09382 (P09382 2-135): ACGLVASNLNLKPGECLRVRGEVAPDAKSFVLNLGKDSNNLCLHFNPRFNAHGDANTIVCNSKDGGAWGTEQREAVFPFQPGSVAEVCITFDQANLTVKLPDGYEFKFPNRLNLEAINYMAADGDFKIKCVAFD

pKd: 4.34
Substance: Thymosin alpha-1 (from UniProt P06454)
